# Source: publication PMC8600288
# Target: AlyA3, PL17 alginate lyase from Zobellia galactanivorans DsijT (recombinant, His-tagged, without signal peptide) (Zobellia galactanivorans DsijT)
# Assay: SEC
substance,measurement,value
"AlyA3, PL17 alginate lyase from Zobellia galactanivorans DsijT (recombinant, His-tagged, without signal peptide) (enzyme)",stoichiometry N,2
